The supplement of paper PMC10724198
± gives the standard deviation of the averaged measurements.

System: Saccharomyces cerevisiae
Experiment: protein stability index of tFT-peptide fusion (C-terminal peptide) (PSI (0-1 scale)); higher = more stable (slower turnover)
Conditions: genetic background: wild type; temperature: 30 C
Method: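 Multiplexed protein stability (MPS) profiling in S. cerevisiae. Random 12-aa peptides (tFT-X12 library) are fused to the C-terminus of a sfGFP-mCherry tandem fluorescent timer, after mCherry and a GGGS linker. Cells are FACS-sorted into 8 mCherry/sfGFP bins and deep-sequenced. The protein stability index (PSI) is the read-weighted bin average, scaled from 0 (unstable) to 1 (stable). Only peptides with >10 reads are reported; cells were grown at 30 °C in SC-His with glucose.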
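Note: PSI is a weighted mean of sequencing reads over stability bins, variants kept only with over 10 reads, mCherry proximal and sfGFP distal, peptide attached via GGGS linker.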

Sequence | protein stability index
GWDRNVGWVVGR | 0.735 ± 0.044
GWESCLGVTRSV | 0.69 ± 0.018
GWEYMDERVNQS | 0.74 ± 0.013
GWGGGEGVEGEP | 0.678 ± 0.048
GWGGGGGGGAGG | 0.665 ± 0.057
GWGGGGGGRGWG | 0.71 ± 0.055
GWGSGSYRRRAV | 0.695 ± 0.055
GWMGGFLVMSID | 0.686 ± 0.037
GWNRVGDWGVCG | 0.736 ± 0.01
GWRAGGTGAPSR | 0.653 ± 0.041
GWRHFVLFWCGL | 0.752 ± 0.022
GWSCGGVGGGLG | 0.71 ± 0.04
GWSVWFGLGGVW | 0.689 ± 0.022
GWTVCVFGSCGV | 0.692 ± 0.051
GWWVVTLRSGLR | 0.651 ± 0.09
GYCLGVGLRLLH | 0.562 ± 0.018
GYRMEGRVDSGG | 0.6495 ± 0.004
GYTRYYRLLQSR | 0.642 ± 0.028
GYTSGEEGAVTA | 0.624 ± 0.016
HAPALSSTPRLL | 0.6836 ± 0.0064
HAPPPPDASPPL | 0.677 ± 0.051
HATPPAPHSVSS | 0.774 ± 0.036
HCFWVVTGGSWF | 0.691 ± 0.06
HCPIPWASLNCL | 0.665 ± 0.0082
HDAPTRQLTLPG | 0.663 ± 0.031
HDETKAYLAPGQ | 0.697 ± 0.037

Sequence | protein stability index
HFGPRTTLCAPD | 0.666 ± 0.034
HGLESMNRYRWI | 0.555 ± 0.016
HGLLDPLSILLY | 0.668 ± 0.013
HGNFLTALVGRI | 0.669 ± 0.046
HGSVGRIAHVLS | 0.6672 ± 0.0062
HGVQEFRVAPEF | 0.738 ± 0.035
HHEDGRPTCQAN | 0.677 ± 0.046
HHPLGSPPVPPP | 0.729 ± 0.039
HHPTQRPRHRLG | 0.683 ± 0.082
HIKSENKEKGKI | 0.624 ± 0.022
HILSPRPAIGVL | 0.612 ± 0.021
HIPRLPRPTRAP | 0.682 ± 0.059
HIYHIRFANKRG | 0.657 ± 0.013
HKNPQKEVIAKT | 0.744 ± 0.058
HLDVRGTRRMGT | 0.669 ± 0.042
HLGPPPGRVFAV | 0.6194 ± 0.0052
HLPGFAVVFPFP | 0.717 ± 0.032
HLPPMLSCTLRS | 0.657 ± 0.046
HLPRHVSLLGPP | 0.671 ± 0.0079
HLPSPLPSPSFH | 0.6061 ± 0.0017
HLRPRYSLVPAT | 0.651 ± 0.048
HLSPGRLPPPVQ | 0.7136 ± 0.006
HMLSGRSFVRGD | 0.69 ± 0.038
HNFYKLNLDHLK | 0.649 ± 0.061
HPGPPPPPAAAA | 0.679 ± 0.007
HPKPNLPPAAVH | 0.6854 ± 0.0049

Sequence | protein stability index
HPLFCPPPPPLA | 0.708 ± 0.036
HPLPPPPRSPPS | 0.732 ± 0.011
HPNGVMIGKNPT | 0.702 ± 0.023
HPNKPTYLPSPY | 0.768 ± 0.1
HPPAPSPPETSL | 0.69756 ± 0.0005
HPPPFRLPPAPP | 0.639 ± 0.0072
HPPPSLAASPPP | 0.544 ± 0.017
HPPPSNYWPSSA | 0.658 ± 0.084
HPPTLCPLSRRH | 0.659 ± 0.047
HPRRLRPAHTPP | 0.725 ± 0.0075
HPSFPPHRSPAS | 0.78 ± 0.023
HPSRWPSPRAIL | 0.684 ± 0.051
HPTRPHLPPFAP | 0.681 ± 0.066
HQKQCRSNRHRG | 0.657 ± 0.05
HRAFAAGFGVWG | 0.669 ± 0.067
HRCPSPPWFHPS | 0.752 ± 0.071
HRILILSGLRAG | 0.626 ± 0.041
HRPSPLPPRVPL | 0.673 ± 0.033
HRRASYVLSPLS | 0.7413 ± 0.0073
HRRGRVAQFAIS | 0.644 ± 0.029
HRVNKKNCEEKT | 0.631 ± 0.053
HRVVAATKSPSA | 0.727 ± 0.064
HRYSGSTFSAVL | 0.728 ± 0.11
HSLRPPPRHQQK | 0.689 ± 0.02
HSNPPPRRHPTI | 0.756 ± 0.068
HSQPPRRPSTNP | 0.792 ± 0.033

Sequence | protein stability index
HSSLPQPRELRT | 0.674 ± 0.021
HSSPHFTTTKTP | 0.7081 ± 0.0016
HSVPSCPKFSII | 0.66732 ± 0.00044
HTDSKVVILFVP | 0.592 ± 0.014
HTGLRASSPNST | 0.753 ± 0.052
HTPAPLPPPLHP | 0.691 ± 0.011
HTPPAPLPSSPH | 0.749 ± 0.0079
HTPPMVGMLCLG | 0.6 ± 0.032
HTSFQTNASPKD | 0.727 ± 0.031
HVDSLPRPLLPS | 0.716 ± 0.056
HVLCRAFLFLLP | 0.642 ± 0.016
HVLHKPYRPGRP | 0.601 ± 0.0069
HVPHFCLSPTII | 0.758 ± 0.14
HVPRFLPFLSSL | 0.739 ± 0.033
HVVLPPRYCISR | 0.696 ± 0.015
HWRRGGRSGGDR | 0.71 ± 0.033
HWTLRRGTGIEL | 0.6693 ± 0.0061
HYEIFSCDPGCD | 0.746 ± 0.024
HYLHRDSLLRWL | 0.6182 ± 0.0033
HYRLPLPPASPA | 0.701 ± 0.052
HYSMAPIPHDNR | 0.711 ± 0.074
IAASCGPRYKDS | 0.632 ± 0.077
IADGSEIVRSLI | 0.71 ± 0.038
IAEWVRLIVGEG | 0.671 ± 0.015
IAVSWIRGGRIM | 0.849 ± 0.13
ICCASALPFDIS | 0.784 ± 0.19

Sequence | protein stability index
IDVRRAIIPGLG | 0.595 ± 0.011
IESLDRRGAEQI | 0.747 ± 0.045
IFIPRFDLPSFP | 0.788 ± 0.16
IFIVINGHFAGS | 0.66 ± 0.06
IFKSLEKKTKRV | 0.766 ± 0.0086
IFMHPRATLPAR | 0.73 ± 0.076
IFRSLDFVFYFT | 0.646 ± 0.097
IFSSFCPASFFL | 0.757 ± 0.031
IGFNVEIRKGMG | 0.605 ± 0.082
IGGRRGVTGIFV | 0.699 ± 0.064
IGIGVAGERLGV | 0.612 ± 0.059
IGIIFTKCGGRT | 0.688 ± 0.037
IGKWIKKKKQKG | 0.631 ± 0.023
IGLFWSGFFYGV | 0.743 ± 0.038
IGLRCPPPKPYA | 0.696 ± 0.035
IGLRVLSNSYEV | 0.694 ± 0.031
IGRRGINGLWGG | 0.627 ± 0.042
IGRVFGMENIKM | 0.669 ± 0.014
IGTGLVLFSPCY | 0.69 ± 0.022
IGTKKVINDKLL | 0.675 ± 0.028
IGVRSPSTHIVN | 0.72 ± 0.018
IGWCRLRDRLVS | 0.556 ± 0.048
IHRLPPSLFPLL | 0.776 ± 0.12
IIKDITNRGYAW | 0.724 ± 0.073
IIKKKKNKARDI | 0.734 ± 0.067
IILHLTRPGLAL | 0.673 ± 0.013

Sequence | protein stability index
IILVVLSRLYVI | 0.5644 ± 0.003
IIPQSCTSGGHT | 0.711 ± 0.061
IIRKYKARKKNK | 0.688 ± 0.041
IKIKKKKKRNKR | 0.685 ± 0.057
IKKKNQKHKKKN | 0.7114 ± 0.0029
IKKKTNYMNEKI | 0.661 ± 0.0096
IKKQTKTKKKEF | 0.65 ± 0.058
IKKRTSNRENKD | 0.7 ± 0.025
IKKSRSLRIGMN | 0.584 ± 0.04
IKNENKKKKNKK | 0.699 ± 0.024
IKRKKKKKKKRD | 0.6558 ± 0.0015
IKTKKKKKKKRD | 0.686 ± 0.0099
IKTVSDFLIVKL | 0.6998 ± 0.0055
ILCFSLESPRYH | 0.6991 ± 0.0022
ILCLPFSVSSPS | 0.61579 ± 0.00015
ILCPSPAPTSFP | 0.6682 ± 0.0061
ILLSVAMNLRKH | 0.571 ± 0.037
ILNNSDRAYTIQ | 0.731 ± 0.04
ILPFYAEGQLKF | 0.649 ± 0.05
ILSASARPPRPA | 0.701 ± 0.011
ILSGIGNGSGSE | 0.72 ± 0.06
ILSPDRTHANET | 0.665 ± 0.083
ILSPLRHPEPTR | 0.70614 ± 9.6e-05
ILVAPAYYCWKV | 0.642 ± 0.045
ILWVSPFFFSLD | 0.699 ± 0.064
